Measured values published in a protein production outcome set (Wang et al. 2014).

Test: label from the status in PepcDB records

Sequence | protein production
MTQIARISDTGTERRLQAERLIGAKALQEAQALRFNVFSGEFNAKLKGAELGLDMDDYDVHCSHIGVRDLNTGRLVATTRLLDHQAANSLGRFYSEEEFSLHGLVQLKGPILEIGRTCVDPAYRNGGTIAVLWGELAEVLNQGGYSYLMGCASIPMQDGGVQAQAIMQRLRERYLCTEHLRAEPKNPLPSLDIPSNVIAEMPPLLKAYMRLGAKICGEPCWDEDFQVADVFILLKRDELCPRYARHFKAAV | failed
MVNFDCVIEELDEKTKEMLRVIDEDADSFAARAEMYYKKRPELIAMVEEFYRSHRSLAERYDLLRPSSVHKHGSDSESHEKSSTCDESSWSEACETHEEYAESEIDNGESKWVDESEIDGIVEEIEPSEVVYSEGNGNSEMMKIEIERLREENKVYSEMVREKDEEKREAIRQMSVAIQMLKEENSELKKRVTNTVVARRNKEGGDSQRKQQMWKPFEFKKIKLEGLWGKGFGNWALPNTDSTSKELMTL | failed
EQVFAAECILSKRLRKGKLEYLVKWRGWSSKHNSWEPEENILDPRLLLAFQKKEHEKEVQN | not failed
MTDFSRTFSGTPSAVLPTANRFFRPPLPSAHVARPRLCRRLRDGLDGRLLLIAAPAGFGKSSLAIEFCESLDPRWQSLWLGLSSRESDPGRFLERLLDGLRQYHPTLGEEALGLLKMRQRHQPFAFETWLDDLLDELAPCLDPQRPLLLVLDDYHLAQGAVLDRCLQFLLNHLPEGLVLLVTSRQRPDWHLARLRLSRQLLELSEQDLRLTAEESGALMAASGLELDEDALDALLERSEGWVAGLRLWLLARGDPEEQVSPGVHGADELIRDYLLEEVIERQPPEVQAFLAQTARFERFCAELCDTVREAGDSAAILDHLQQHQVFLVPLDENGQWFRYHHLFSDLLLARPLPDFGPSAGSLHLRACGWFSRHGLLDQAVEQALRAGQPDVAASLVQNLSEEQLLAEQNIATLLRWKMDLPDSLLASTPRLILLYGWALALACQLDAAEELAGQLARFLPAPDESAQRDLLAQWQALSGVIARGRGDIDKAEAHCREALQDLAGERYGTRLQCLSTLSNLAVTRGDFWQARNYNRDALEFAQRYGNPLFEALVHYDRARVLQARGEVARAEEEVRQGLERLQHLPAQRRYAVRGRLLLYRGYLRSLALQPDEARKWIKQGIEETRSCRDVSLVIGYCVLASLEGRLGNYAAAFARLGDVERLMHAWDIPPIYYLAAITLIKCELWLAQGQTELAGVWLQRLGGTYGGQAATPPECSPLLPLHVELLQAGLERREGRPEEAARRLDRLARSTRENGALLPARLALGQLAALHLEQGREREALATLQQAMEGAVGGALLPLHELLVQQPEWLREQLQRFPACPGAQRMRALLPEPPAEPAGSAGEVLSGRELAVLELIAQGLSNQEISERLFISLHTVKSHARHINDKLGVERRTQAVARAKHMGLLR | failed
MGSSMEEKVVAVIMVGGPTKGTRFRPLSLNIPKPLFPIAGQPMVHHPISACKRIPNLAQIYLVGFYEEREFALYVSAISNELKVPVRYLREDKPHGSAGGLYHFRNLIMEDSPSHIFLLNCDVCCSFPLPKMLEAHRGYGGIGTLLVIKVSPESASQFGELVADPVTNELLHYTEKPETFVSDRINCGVYVFTPEIFNAIGDVSTQRKDRATLKRVSSFEALQPATRIPTDFVRLDQDILSPLAGKKRLYTYETMDFWEQIKSPGMSLRCSGLYLSQFRLTSPQLLASGDGTRSAIVIGDVYIHPSAKVHPTAKIGPNVSISANARVGPGVRLMSCIILDDVEIMENAVVTNAIVGWKSSIGRWSRVQAEGVYNSKLGVTILGDSVAVEDEVVVTSSIVLPNKTLNVSVQDEIIL | failed
QIRMIAAIAHMGGHDLKDDRVKAMVYACLTGNAAKDILKDIGIVVGRKLTENAIKSISGKTITKINQAVGFRLLTKFGEKG | failed
MIKSIKKNLKPKILISNLILIIGIVIFVTLYGAVFGSANSLVGVCAITAMLMFVDVHLSLKLNEAIITTVLSFVLMGVSSQIASINPFLGFVVNFISIFVVSYLVTNAMETKAYLPFILCYVFIEGTPITWSELPRRLIALFVGGALIALVYYFSHRKKDDSDHMNISEMIKTMNKNTLQFNFSLRMALAVSIAMLLGSILGFQKSMWISITAMSITQPHFDDTKTRVKERFFGTLIGSAIFVLIFVYIVPQQFSSIVLLILSYIYTFIKEYKIKMIFITMSSLGAAMILFQPGVSVPMRIAFIVMGIGIALVVNKVIYGRLKLEESNEELDETIKDIDKVNDEF | failed
MVLEVSDHQVLNDAEVAALLENFSSSYDYGENESDSCCTSPPCPQDFSLNFDRAFLPALYSLLFLLGLLGNGAVAAVLLSRRTALSSTDTFLLHLAVADTLLVLTLPLWAVDAAVQWVFGSGLCKVAGALFNINFYAGALLLACISFDRYLNIVHATQLYRRGPPARVTLTCLAVWGLCLLFALPDFIFLSAHHDERLNATHCQYNFPQVGRTALRVLQLVAGFLLPLLVMAYCYAHILAVLLVSRGQRRLRAMRLVVVVVVAFALCWTPYHLVVLVDILMDLGALARNCGRESRVDVAKSVTSGLGYMHCCLNPLLYAFVGVKFRERMWMLLLRLGCPNQRGLQRQPSSSRRDSSWSETSEASYSGL | not failed
MPLKRLGHRVLGLVLAAMLLYGGLAPPVRNFFALPWQQRLPAAAPISLPWELPPGLARQVEVKVNSGDWSRATTGDFPRWLQLQLKLFGFIPLKNITIQLVQPVDVSPGGQAIGVFLKTEGVQVVGQAAIVDERGNKVYLARQAGLETGDAIIAIDGQKVTSDQEVANLINAAGQANRQARITVKREGHLLTLNIHPRYCQETGRYRIGVYVRDSTAGVGTLTFYDQNKGVFGALGHVVTGSDGQTAMDISGGRIVAAAIQGIHQGYRGQPGEKLGVFLENGQFSGTIQKNTIVGIFGTITGKLPGNKEIPVALADTVHPGPAEILTVIEGEKVESFQVEIERVMPHQRASGKGLVLRITDPRLLAVTGGIIQGMSGSPIIQDGQLAGAVTHVFINDPTRGYGVLAEWMLQETELVPKDKARGATVETPGSFLFVVFCVG | failed
MAASTSSSSSSSSSSLSSPSPCTWRYMTFTSFHGPDVRNTFLSHLRKQFNTNGITMFDDQRMERSQTLAPTLTQAIRESKIYIVLLSKNYASSSWCLDELLEILNCKEKRGQRVMTIFYGVNPSDVRKQTGEFGIAFNETCARKTEEERRKWSHALTCVGNITGVHVQDRDDEANMIEKIATDVSEKLNATESKDFDEMVGIKAHLTKIESLLSLDYDKVKIVGISGPAGIGKSTIARALHNLLSSSFHLSCFMENLISQSNPHSSLEYSSKLSLQEQLLSQVLNEKDIRIRHLGAIQERLHDQRVLIILDDVTSLEQLEVLANIKWYGPGSRIIVITKKKDILVQHGICDIYHVGFPTDADALKIFCLSAYRQTSPPDGSMKIHECEMFIKICGNLPLHLHVLGSALRGRSYGRVQSLCNLVSLADFV | failed
MVWHYSNIMHKKSKAQLQDYFKDLTAIGNASSEQMEANRDGIQGETEENINPPPQNPKKRLSLPNLSSPSLAAEAENLESAGQPGSDYLSNSFGQANKANVAVAPVNSDYIAPEKLEDQPGDFFGGKRWFWLGGILVLLVGGTALTLPKALEMVNGWRQEAQLKAYEQEQHQDSEVLRLALLPPDQRRSKLEAIANQEVLSLERSRARFLLAGDLLAEFEGGPALRVLEGLEVQYPVLAPYILLMRGRGYQLSNENDQAEATWQDILDQYPDSPVVVNALENLGSLDETYWQQAIADHPGHPRTLAILHQQLESEPNALEIQRQILQNHPTDGRTAAVINSLTANRQGELTPEDWQAMGDNFWHRRIYNQAIAPYEKAPSNARNLYRLARAQQISKLDNEAKENYRQLIATYPDSEETALALRRLAELVPPREGVQYLQQLEQQFPDQGASALAARIDLLAKFDANQAQQARQALLQKYPNSDAAADYRWRQAQEFAKAGNYTEAWRWAKEIANQNPQSDVTPKAIFWIGKWAQQLGRSADSKAAFETVLAKYPQSYYAWRSAVLLGWQVGDFNSVRFLNPPVTVPDQRPLPPAGSPTFRELYRLAQDQEAIELFNAEVRARAEGEATPELTVNEGFTEALLKLTQQEYLQGINQVLNLRNPEDPEQRKQWEELRSTRDYWQTLFPFPYQQLIFEWSEKRQVNPFLVTALIRQESRFEKNIQSPVGATGLMQIMPATAEWIAPQIGLKEYSLTDPTDNVNMGTWYFDHTHKTYNNNSALAVASYNAGPGNVAKWLQEFNNADPDLFVERIPFAETKGYVESVFGNYWNYLRIYDPDVEKLMGQVGKN | failed
MKIVSKSSPLPLHYQLKMILQEMIENEELLPGDTIPTERELCEIQKISRMTVNKAILSLVSEGILYREQGKGTFVAKKKEKQQLTKLKSFTEEMREKGLNISTKILSFEIKTATKHISTLLELPHKKMKVIEIIRLRLTDNDPSAIETVVLPLYLFSDMTKEVIDGKSLYNTFREKYGYEPTKAKQTIEPIMLTDYEAKFLNQVGNSLALLFRRLTYRKDGVPIEYTKSIYRSEKYKYEVILT | failed
MTIAEIRKFAQTTQKFVEAENLFEHGNVVLPKKYLNKARGMAEVLYNSQVIKVSFTAKDGELTCKCSCLANVDNCVHIVAVLLKYHQMLVESKRSFNLAEAFHLDCDQAEMLIENLSLEIIAGGNFKLGFTINLDKHNPQPSVLRFYCCDATFVYFLHLENDTLHSVELSKFKPEERATLLFFDKLCKQFTVGYDRNSLLFPLAGFLKELQANTEPTIFVFNDDKIDNILFLRISKKHHGLNHVCGFSGKKVFDFVTYKQKEKQIVLRSAYLSKFTDFKFPYTINIYKLQFGEPLFFYFLIQLKRDGFKNFYFQSEDSIVKEKEYLPKLYFKVEYDPVKNKFVSDAFFKYKNHFNKGTTTVYPHRYYMAKKSDRGGFNRLLFYEEAVENFYQDQFDLGYFRKFEHLPIQDKNQIEAFKAALDDLMPVDLAEVSLSDNLLHQKPLHFALSDLEAVAVDDKQIKLSFAPSAVELKLIKRILSAYHKGNVVCIDQESWYDLKQPAAKELIQFNQFDLRNATSDGNHIYLPKYYLFEVAKIFSQYLDIKNLFDVPTIKKIEDQNNNVFDLSLEHKKITSLRNYQQEGVKIRGLEENKFGGILADEMGLGKTVQVIFALLDSYLKNHVNLPSLIIVPASLLLNKSEFEKFAPQIKVKVANIPSKERGELYEKLTNEILIVSFNVLRSDVKLITKQRFHYVVIDEAQGIKNDSSSITKAAKKVKGNFCLALTGTPIENRLLDLSCFDFVLPSFLGNKKQFTDQFEKEKTDQSFHLLMQRTSPFILRRTKSKVLKELPNKITTDIYVELNPMHQKLYEEERDRGLEEIKQIQDKSSFNILTLILKLRHLCSLPKNSQGILENSAKKEAALEIIHEAIENQRKIILFTQFIDVIDHFKDTFKEQGIEYFIFDGRKSPKSRHSIIEKFNNAKNPCVLLASLKAGGVGINLTAAEVVIHFDVWNTAVENQATDRAHRIGQKKTVQVYRIIAKNTIEERVCQVQAEKQELVSKTLVEDVNFFESLTNEELLRLFE | failed
MTDKTSLSYKDAGVDIDAGNALVGRIKGVVKKTRRPEVMGGLGGFGALCALPQKYREPVLVSGTDGVGTKLRLAMDLKRHDTIGIDLVAMCVNDLVVQGAEPLFFLDYYATGKLDVDTASAVISGIAEGCLQSGCSLVGGETAEMPGMYHGEDYDVAGFCVGVVEKSEIIDGSKVSDGDVLIALGSSGPHSNGYSLVRKILEVSGCDPQTTELDGKPLADHLLAPTRIYVKSVLELIEKVDVHAIAHLTGGGFWENIPRVLPDNTQAVIDESSWQWPEVFNWLQTAGNVEHHEMYRTFNCGVGMIIALPAPEVDKALALLNANGENAWKIGIIKASDSEQRVVIE | not failed
MTVRLTFMCATAGGTTRDAVFGDGLLSERGLRRARAAGATLPPYSLAIRAPSVRCAQTAYALGLPTTLEPALRDLDYGTWRGRTVGEVVADEPYGYSAWLTDPDAAPHGGESVRRLCRRIANWLSSVPPYPGRALVITEPSVVRASLVHALSAPVTAFRHFDVPPLSTVSLTLSDGHWIVRPGRVTPDRVGTSRAVPTPYDAAEGRTALLWGEATPA | failed
